Experimental data taken from publication PMC11951922.

Target: AF-tubulin (porcine) (UniProt P02550)
Sequence of UniProt P02550 (P02550 whole entry, chain 1 of 2): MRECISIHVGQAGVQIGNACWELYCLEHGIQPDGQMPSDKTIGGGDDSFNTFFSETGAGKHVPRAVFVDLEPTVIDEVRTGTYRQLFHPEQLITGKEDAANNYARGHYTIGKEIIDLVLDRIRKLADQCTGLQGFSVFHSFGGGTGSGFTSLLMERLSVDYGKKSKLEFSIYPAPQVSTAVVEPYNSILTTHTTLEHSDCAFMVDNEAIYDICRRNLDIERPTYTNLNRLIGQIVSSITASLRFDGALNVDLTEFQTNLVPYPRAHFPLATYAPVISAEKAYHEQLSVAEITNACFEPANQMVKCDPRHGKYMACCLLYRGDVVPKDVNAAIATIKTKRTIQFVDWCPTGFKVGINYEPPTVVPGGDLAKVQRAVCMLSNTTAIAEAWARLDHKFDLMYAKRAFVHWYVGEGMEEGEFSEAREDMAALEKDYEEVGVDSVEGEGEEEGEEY
Sequence of UniProt P02550 (Q767L7 whole entry, chain 2 of 2, further chain): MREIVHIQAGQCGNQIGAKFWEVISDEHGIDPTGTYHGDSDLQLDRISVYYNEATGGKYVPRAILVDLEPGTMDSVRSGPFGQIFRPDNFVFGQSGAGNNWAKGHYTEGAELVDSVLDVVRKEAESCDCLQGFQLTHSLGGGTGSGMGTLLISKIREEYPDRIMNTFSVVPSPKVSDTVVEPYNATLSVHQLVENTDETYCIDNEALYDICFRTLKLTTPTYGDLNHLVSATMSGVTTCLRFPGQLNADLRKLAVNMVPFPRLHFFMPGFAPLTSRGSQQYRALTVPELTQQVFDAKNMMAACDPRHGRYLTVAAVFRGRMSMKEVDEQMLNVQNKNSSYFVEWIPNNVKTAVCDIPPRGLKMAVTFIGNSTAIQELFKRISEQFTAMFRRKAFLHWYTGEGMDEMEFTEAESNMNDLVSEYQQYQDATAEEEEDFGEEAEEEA

| Pearson's correlation coefficient (PCC) of co-localisation of TMR-microtubule and AF-tubulin fluorescence in CLSM images, 100 uM peptide, doublet method (no peptide: 0.07) | Binder |
| --- | --- |
| 0.61 | KAKAKAKAKAKAKAGGGSGGGKKHVPGGGSVQIVYKPVDL [KA7–GGGS–TP] |
| 0.72 | KAKAKAKAKAKAKAEAAAKEAAAKGGGKKHVPGGGSVQIVYKPVDL [KA7–(EAAAK)2–TP] |
| 0.7 | KAKAKAKAKAKAKAGGGSGGGSGGGSGGGKKHVPGGGSVQIVYKPVDL [KA7–(GGGS)3–TP] |
